Results: article PMC12452593

Target: EV-D68 US/MO/14-18947 viral particles (Enterovirus D68)

## secreted MFSD6-Fc microbody (from UniProt Q6ZSS7 153-280) (Fc fusion)
  survival rate of neonatal ICR mice (n = 9 per group) given 1.0 × 10^7 TCID50 of EV-D68 US/MO/14-18947 pre-incubated with 15 ug secMFSD6 Mb (secCtl Mb group: 11.11%): 88.9%
